Article doi:10.1101/2020.02.28.970301, “Picomolar affinity antagonist and sustained signaling agonist peptide ligands for the adrenomedullin and calcitonin gene-related peptide receptors” (bioRxiv, 2020)

Biological target: T1, CLR ECD (29-144) as it stands in MBP-RAMP2.55-140[L106R]-(GSA)3-CLR.29-144-H6 (human, UniProt Q16602 29-144)
T1 construct: calcitonin receptor-like receptor (CLR), human, extracellular domain, residues 29-144; joined to m5 on one chain by the (GSA)3 linker in the crystallised fusion m4; source: E. coli, purified (as part of the fusion m4); not shown: His6, C-terminal, kept
Experiment: crystal structure; bacterially expressed MBP-RAMP2 ECD-(GSA)3-CLR ECD mixed with peptide 1:1.2; hanging drop, 20% PEG MME 5000, 0.1 M sodium HEPES pH 8.2, 150 mM sodium formate, 3% DMSO; 1.83 Å
Conditions: both partners purified

T1 sequence (Q16602 29-144, stated change not applied): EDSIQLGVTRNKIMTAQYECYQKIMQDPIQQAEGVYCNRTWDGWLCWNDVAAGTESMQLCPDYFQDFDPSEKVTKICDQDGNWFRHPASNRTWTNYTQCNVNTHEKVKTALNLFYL

B1: RAMP2 ECD (55-140, L106R) as it stands in MBP-RAMP2.55-140[L106R]-(GSA)3-CLR.29-144-H6 (domain or fragment, human, UniProt O60895 55-140, looked up)
chain: GGTVKNYETAVQFCWNHYKDQMDPIEKDWCDWAMISRPYSTLRDCLEHFAERFDLGFPNPLAERIIFETHQIHFANCSLVQPTFSD
notes: receptor activity-modifying protein 2 (RAMP2), human, extracellular domain, residues 55-140; joined to m6 on one chain by the (GSA)3 linker in the crystallised fusion m4; source: E. coli, purified (as part of the fusion m4); not shown: MBP, N-terminal, kept
binding result: binds
